Assay [1] concerns the target T1, Ab42 species in hippocampus protein extracts of J20 mice (PDGF-APPSw,Ind) (human).
T1 construct: Target present in crude hippocampus extracts coated on ELISA wells; 6E10 detects total Ab in the same extracts; also called Ab42 oligomers formed in vivo in a mouse model of AD
The experiment in a line: indirect ELISA on hippocampus protein extracts of J20 mice, normalised to wild-type mice. On the technique in general: An ELISA detects its analyte on a solid surface through an enzyme-linked reagent.

Assay [2] addresses T2, Zn2+-stabilised Ab40 oligomers (UniProt P05067 672-711).
T2 construct: domain: Ab1-40; Oligomers made by incubating Ab40 with ZnCl2 for 20 hours at 20 C
Description: ITC, fit of double subtracted integrated peaks. A general note: ITC needs no label: the signal is the heat of the interaction.

Assay [3] addresses T2, Zn2+-stabilised Ab40 oligomers. Description: ITC, DesAb-O injected into Ab40 oligomers, 25 C.
For assay [4], the target named is T3, human Ab42 species in protein extracts of GMC101 C. elegans worms (human).
T3 construct: Target present in crude worm protein extracts coated on ELISA wells; also called NIAD-4 negative, toxic Ab42 species; Ab42 oligomers formed in vivo
T3 sequence (peptide, as listed by the source): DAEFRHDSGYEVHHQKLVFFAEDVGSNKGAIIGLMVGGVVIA
Description: indirect ELISA on C. elegans protein extracts, N2 worms as reference.

As a reminder, the Kd is the equilibrium constant for the complex coming apart. Low values mean tighter binding, high ones weaker binding.

T2 sequence (P05067 671-711 limits assumed): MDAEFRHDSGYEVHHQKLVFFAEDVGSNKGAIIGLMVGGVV
T1 sequence (peptide, as listed by the source): as the sequence (peptide, as listed by the source) above

B1: DesAb-O (VHH)
VHH: EVQLVESGGGLVQPGGSLRLSCAASGFNIKDTYIGWVRRAPGKGEEWVASIYPTNGYTRYADSVKGRFTISADTSKNTAYLQMNSLRAEDTAVYYCAAGSESAFGRAEEEAAAWGQGTLVTVSS
notes: Rationally designed single-domain antibody (VH domain), expressed in E. coli, purified by Ni2+ chromatography and detected with an anti-6X His tag antibody; also called DesAb-0; Des-Ab-0
B1: the binding result in assay [1] and in assay [4] was “binds” each time. The “DH (ITC fit)” value in assay [2] was -53.1 kJ/mol. Moreover, the Kd in assay [2] was 0.44 µM; in assay [3] it was ~0.5 µM.

Source of the values: patent WO2021032966A1 (dated 2021).
